Source: the nanobody polyreactivity screen of Harvey et al. (2022)

Assay: yeast display, Sf9 membrane polyspecificity reagent, FACS + sequencing; frameworks hold sequencing errors
Summary of the method: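 Nanobodies came from a synthetic yeast display library in Saccharomyces cerevisiae BJ5465, induced with galactose for 36–48 hours and stained for 1 hour at 4 °C with 10% biotinylated, detergent-solubilized Sf9 membrane reagent. Cells were enriched on streptavidin microbeads and then FACS-sorted, with low and high (top ~1%) gates set on anti-HA fluorescence for expression and streptavidin fluorescence for reagent binding. Each polyreactivity label reflects the gate a clone came from. Genes were amplified by colony PCR, sequenced by MiSeq 2 × 250 and filtered by CDR length.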

Row | Sequence | polyreactivity (PSR sort gate)
1 | QVQLVESGGGLVQAGGSLRLSCAASGFIFGGYAMGWYRQAPGKERALVAAITRSGGSTYYADSVKGRFTISRDNAKNTVYLQMNSLKPEDTAVYYCAAERQPYRTSSYNYWGQGTQVTVSS | high polyreactivity
2 | QVQLVESGGGLVQAGGSLRLSCAASGFIFGINAMGWYRQAPGKDRELVATITSGGGTNYADSVKGRFTISRDNAKNTVYLQMNSLKPEETAVYYCAAEEDYISFYVSMDYWGQGTQVTVSS | low polyreactivity
3 | QVQLVESGGGLVQAGGSLRLSCAASGFIFGINAMGWYRQEPGKERELFAAISKRTGSTYYADSVKGRFTISRDNAKNTVYLQMNSLKPEDTAFYYCNVVRYNGLDKYEYWGQGTQVTVSS | high polyreactivity
4 | QVQLVESGGGLVQAGGSLRLSCAASGFIFGIYAMGWYRQAPGKERELVARISRSGVSTYYADSVKGRFTISRDNAKNTVYLQMNSLKPEDTAVYYCNAYRGGLSSEHYYWGQGTQVTVSS | high polyreactivity
5 | QVQLVESGGGLVQAGGSLRLSCAASGFIFGKYAMGWYRQAPGKERELVAAITSDGRTYYADSVKGRFTISRDNAKNTVYLEMNSLKPEDTAVYYCAVDYYWYWYSGYDDYWGQGTQVTVSS | high polyreactivity
6 | QVQLVESGGGLVQAGGSLRLSCAASGFIFGLNAMGWYRPAPGKERELVAAISYNGGSTYYADSVKGRFTISRDNAKNTVYLQMNSLKPEDTAVDYCNAYLYRKVGYRAYDYWGHGTQVTVSS | low polyreactivity
7 | QVQLVESGGGLVQAGGSLRLSCAASGFIFGLYAMGWYRQAPGKERELVAAISSGGSTYYADSVKGRFTISRDNAKNTVYLQMNSLKPEDTAVYYCAAYYVYSEYDYWGQGTQVTVSS | high polyreactivity
8 | QVQLVESGGGLVQAGGSLRLSCAASGFIFGLYDMGWYRQAPGKERELVARISWGGGTYYADSVKGRFTISRDNAKNTVYLQMNSLKPEDTAVYYCNTRTRGYYYNSYYWTKYGYWGQGTQVTVSS | high polyreactivity
9 | QVQLVESGGGLVQAGGSLRLSCAASGFIFGNYPMGWYRQAPGKQRELVAAITSGGNTNYADSVKGRFTISRDNAKNTVYLQMNSLKPEDTAVYYCAADRNLYWVFSPNETEDYWGQGTQVTVSS | low polyreactivity
10 | QVQLVESGGGLVQAGGSLRLSCAASGFIFGPYAMGWYRPAPGKERELVASISNSGDSTYADSVKGRFTISRDTAKNTVYLQMNSLKPEDTAVYYCNADGFVGTPSVDYDYWGQGTQVTVSS | low polyreactivity
11 | QVQLVESGGGLVQAGGSLRLSCAASGFIFGPYTMGWYRQAPGKERELVAAINNSGSTNYADSVKGRFTISRDNAKNTVYLQMNCLKPEDTAVYFCAAEPIIFVRYDYWGQGTQVTVSS | low polyreactivity
12 | QVQLVESGGGLVQAGGSLRLSCAASGFIFGQYALGGYRQAPGKERELVAVITSSGGRTYYADSVKGRFTISRDNAKNTVYLQMNSLKPEDTAVYYCAAPGYGLQVRGRYGYWGQGTQVTVSS | high polyreactivity
13 | QVQLVESGGGLVQAGGSLRLSCAASGFIFGQYAMGWYRQAPGKERELVAAISWSGGRTNYADSVKGRYTISRDNAKNTVYLQMNSLKPEDTAVYYCAARKGKYPQYTYGYWGQGTQVTVSS | high polyreactivity
14 | QVQLVESGGGLVQAGGSLRLSCAASGFIFGRYAMGWDREAPGKERELVAGIRSSGGSTYYADSVKGRFTISRDNAKNTVYLQMNSLKPEDTAVYYCAARTYGQSLDYWGQGTQVTVSS | high polyreactivity
15 | QVQLVESGGGLVQAGGSLRLSCAASGFIFGRYAMGWYRPAPGKERELVAAITASGGRTYYADSVKGRFTISRDNAKNTVYIQMNSLKPEDTAVYYCNTPSLWSGEDYWGQGTQVTVSS | low polyreactivity
16 | QVQLVESGGGLVQAGGSLRLSCAASGFIFGRYAMGWYRQAPGKERELVAAITWSGGRTYYADSVKGRFTISRDNAKNTVFLQMNSLKPEDTAVYYCNAQGYTTYRGDYWGQGTQVTVSS | high polyreactivity
17 | QVQLVESGGGLVQAGGSLRLSCAASGFIFGRYAMGWYRQAPGKERELVAAITYSSGSTYYADSVKGRFTISRDNAKNTVYLQMNSLKPEDTAVYYCNAEFWYETLYEYDYWGQGTQVTVSS | high polyreactivity
18 | QVQLVESGGGLVQAGGSLRLSCAASGFIFGRYAMGWYRQAPGKERELVAVITWSGGRTYYADSVKGRFTISRDNAKNTVYLQMNSLKPEDTAVYDCAADRYPYHYGYDYWGQGTQVTVSS | high polyreactivity
19 | QVQLVESGGGLVQAGGSLRLSCAASGFIFGRYAMGWYRQAPGKETELVAAISVSGGSTYYADSVKGRFTISRDNAKNTVYLQMNSLKPEDTAVYYCNVARWVSVSRSYGGNYWGQGTQVTVSS | high polyreactivity
20 | QVQLVESGGGLVQAGGSLRLSCAASGFIFGSNAMGWYRQAPGKERELVAAISRSGGSTYYADSVKGRFTISRDNAKNTVYLQMNSLKPEDTAVYYCASYLYKSRYLPEYDYWGQGTQVTVSS | high polyreactivity
21 | QVQLVESGGGLVQAGGSLRLSCAASGFIFGSYTMGWYRQAPGKERELVAAISSSVGRTYYADSVKGRFTISRDNAKNTVYLQMNSLKPEDTAVYYCAARRHGRVDYSQGSRESYYWGQGTQVTVSS | high polyreactivity
22 | QVQLVESGGGLVQAGGSLRLSCAASGFIFGTNTMGWYRQEPGKERELVAAITSVGSTNYADSVKGRFTISRDNAKNTVYLLMNSLKPEDTAVYYCPATLYYQYGGDYWGQGTQVTVSS | low polyreactivity
23 | QVQLVESGGGLVQAGGSLRLSCAASGFIFGVYAMGWYRQAPGKEREFVAAISWTGGSTSYADSVKGRFTISRDNAKNTVYLQMNSLKPEDTAVYYCARRRSYKRRFDYWGQGTQVTVSS | low polyreactivity
24 | QVQLVESGGGLVQAGGSLRLSCAASGFIFGYKARGWYRQAPGKERELVAAISSSGGSTYYADSVKGRFTISRDNAKNTVYLQMKSLKPEDTAVYYCAARPVALRKYYYWGQVTQVTVSS | low polyreactivity
25 | QVQLVESGGGLVQAGGSLRLSCAASGFIFGYNAMGWYRQAPGKERELVAAISSSGGSTYYADSVKGRFTISRDNAKNTVYLQMNSLKPEDTAVYYCAAESLTGYAHYDYWGQGTQVTVSS | low polyreactivity
26 | QVQLVESGGGLVQAGGSLRLSCAASGFIFGYNGMGGYRQAPGKERELVAGITYSDGSTYYADSVKGRFTISRDNAKNTVYLQMNSLKPEDTAVYYCAVDVIYYWAEDYDYWGQGTQVTVSS | low polyreactivity
27 | QVQLVESGGGLVQAGGSLRLSCAASGFIFGYNVKGWYRQAPGKERELVAAISSRGSSTYYADSVKGRFSISRDNAKNTVYIQMNSLKPEDTAVYYCAAYSSYNSWVSRRYGHDYWGQGTQVTVSS | high polyreactivity
28 | QVQLVESGGGLVQAGGSLRLSCAASGFIFGYYAMGLYRQAPVKERELVAAITSGTGTNYADSVKGRFTISRDNAKNTVYLQMNSLKPEDTAVYYCAAYYTWLSEFGYWGQGTQVTVSS | low polyreactivity
29 | QVQLVESGGGLVQAGGSLRLSCAASGFIFGYYAMGWYRQAPGKERELVAAISGDAGRTYYADSVKGRFTISRDNAKNTVYLQMNSLKAEDTAVYYCAAADTYKMDYWGQGTQVTVSS | low polyreactivity
30 | QVQLVESGGGLVQAGGSLRLSCAASGFIFGYYAMGWYRQAPGKERELVAAISGDAGRTYYADSVKGRFTISRDNAKNTVYLQMNSLKPEDTAVYYCAAADTYKMDYWGQGTQVTVSS | low polyreactivity
